The target in assay [1] is T1, Rb^P E539D (human, UniProt P06400 380-788, E539D).
T1 construct: also called variant 24
T1 sequence (looked up): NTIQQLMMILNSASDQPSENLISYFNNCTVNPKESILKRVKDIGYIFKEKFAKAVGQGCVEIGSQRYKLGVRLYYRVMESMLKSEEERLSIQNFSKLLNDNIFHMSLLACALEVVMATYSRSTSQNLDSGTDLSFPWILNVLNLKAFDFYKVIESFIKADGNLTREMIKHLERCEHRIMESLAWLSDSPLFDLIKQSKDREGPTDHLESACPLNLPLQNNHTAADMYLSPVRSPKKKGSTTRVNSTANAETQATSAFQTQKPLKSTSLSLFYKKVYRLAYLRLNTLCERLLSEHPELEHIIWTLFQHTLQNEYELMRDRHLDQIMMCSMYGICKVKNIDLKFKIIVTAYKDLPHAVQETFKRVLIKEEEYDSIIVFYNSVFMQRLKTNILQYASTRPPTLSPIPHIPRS
The assay can be described thus: fluorescence polarisation; 37 °C, after the 25 °C reading ramped over 7 min to 37 °C and 2 min incubation; unlabeled Rb^P against 1.5 nM TMR-E2F1^TD or 7.5 nM TMR-E7^LxCxE; 25 mM Tris pH 8.0, 200 mM NaCl, 1 mM DTT, 0.1% Tween-20; apparent Kd. The conditions noted are these: both partners purified. In general terms: In fluorescence polarisation assays a small probe gives low polarisation when free and higher when bound to something large.

Assay [2] has as its target T2, Rb^P A525G (human, UniProt P06400 380-788, A525G).
T2 construct: also called variant 20
T2 sequence (looked up): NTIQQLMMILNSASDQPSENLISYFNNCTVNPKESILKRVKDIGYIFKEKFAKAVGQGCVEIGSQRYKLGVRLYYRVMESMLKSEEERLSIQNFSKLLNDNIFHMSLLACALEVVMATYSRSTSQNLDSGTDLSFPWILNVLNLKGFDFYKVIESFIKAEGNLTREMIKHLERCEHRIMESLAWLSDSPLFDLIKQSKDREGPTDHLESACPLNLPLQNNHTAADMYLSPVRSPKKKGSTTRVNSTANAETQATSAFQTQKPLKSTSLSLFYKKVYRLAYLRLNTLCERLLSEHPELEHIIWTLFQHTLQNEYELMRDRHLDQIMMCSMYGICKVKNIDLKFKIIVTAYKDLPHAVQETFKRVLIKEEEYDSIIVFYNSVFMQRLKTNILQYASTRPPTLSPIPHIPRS
The description is as above. The note with it: both partners purified.

No end group written: not given here. TMR = tetramethyl rhodamine dye

B1: TMR-E2F1^TD, peptide of the E2F1 transactivation domain (peptide)
peptide: {TMR}-GEGIRDLFDCDFGDLTPLD
notes: also called E2F^TD; source: synthetic peptide, bought: GenScript
As to B1, the Kd worked out at 104 nM in assay [1] and 65 nM in assay [2].

B2: TMR-E7^LxCxE, LxCxE peptide of the E7 oncoprotein from HPV (peptide)
peptide: DLYCYEQLN
modifications: also: TMR label, position not given here
notes: source: synthetic peptide, bought: GenScript
On to B2, for which the Kd in assay [1] was determined as 19 nM; in assay [2], 52 nM.

Values taken from PMC11931385, “Structural and functional analysis of cancer-associated missense variants in the retinoblastoma protein pocket domain” (The Journal of Biological Chemistry, 2025).
